According to US20070128672A1 (ST VINCENT S HOSPITAL SYDNEY, published 2007):
Substitutions are numbered along the chain they refer to. Read-outs that look alike come from different tables or passages of the source.

T1: CEA (UniProt P06731 35-685)
T1 sequence (looked up): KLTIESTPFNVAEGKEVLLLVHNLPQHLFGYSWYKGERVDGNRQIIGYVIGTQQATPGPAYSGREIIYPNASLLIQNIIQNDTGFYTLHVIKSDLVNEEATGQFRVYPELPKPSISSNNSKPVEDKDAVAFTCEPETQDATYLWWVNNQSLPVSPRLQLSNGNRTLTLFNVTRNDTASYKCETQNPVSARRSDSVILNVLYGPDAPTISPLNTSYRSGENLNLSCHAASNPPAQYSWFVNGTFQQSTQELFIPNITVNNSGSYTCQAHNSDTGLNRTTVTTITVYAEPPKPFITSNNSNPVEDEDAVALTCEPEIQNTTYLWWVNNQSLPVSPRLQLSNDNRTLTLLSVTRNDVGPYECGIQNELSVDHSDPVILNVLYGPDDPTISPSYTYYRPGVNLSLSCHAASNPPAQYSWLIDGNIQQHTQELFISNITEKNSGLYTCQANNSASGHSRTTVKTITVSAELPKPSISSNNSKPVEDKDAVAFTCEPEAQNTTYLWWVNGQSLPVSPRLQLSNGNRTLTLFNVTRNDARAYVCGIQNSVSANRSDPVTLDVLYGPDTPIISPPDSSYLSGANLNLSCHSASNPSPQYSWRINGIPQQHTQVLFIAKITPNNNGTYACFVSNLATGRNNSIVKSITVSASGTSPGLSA

B1: Fab clone 1159.8 (Fab, V domains shown)
VH: VQLLESGGGLIQPGRSLRLSCTASGFPFGDSAMTWFRQAPGKGLEWVGFIRSKAYGAATAYAASMKGRVTISRDDAKSIAYLHMSRLKIEDTAVYFCSRVKAGGPDYWGQGTLVTVSS
VL: AAELTQSPLSLPVIPGEPASISCRSSQSLLHRNGYNYLDWYLQKPGQSPQLLIYLGSTRASGVPDRFSGSGSGTDFTLNIRRVEAEDVGVYYCMQGLQTPYTFGEGTKVEIK
notes: Soluble Fab selected by panning on the p53 central domain; detected through the myc tag (9E10)
B2: Fab clone 163.1 (Fab, V domains shown)
VH: VQLLEQSGAEMKRPGASVTISCQASRQTFSGQYIHWVRQAPGQGLEWMGVINPSGGSANYAPSFQGRLSMSRDASTNTVYMKLSSLTSEDTAVYYCLSQALKYWGQGTLVAVSS
VL: AAELTQSPDSLAVSLGERATINCKSNQSVLYNSNSKNYLAWYQQKPGQPPKLLIYWASTRESGVPDRFSGSGSGTDFTLTITSLQAEDVAVYYCQQYFSSPYTFGQGTKLEIK
notes: myc tag on the C terminus of the heavy chain
B3: Fab clone 163.5 (Fab, V domains shown)
VH: VQLLEQSGAEVKRPGASVTISCQASRQDFSGQYIHWVRQAPGQGFEWMGIINPSGGSANYAPKFKGRLTMSRDSSTDTVYMTLTSLTSEDTAVYYCLLQALKHWGQGTLVAVSS
VL: AAELTQSPDSLAVALGERATINCKSSQSVLYSLNNKNYLAWYQQKPGQPPKLLIHWASTRESGVPDRFSGSGSETDFTLTISSLQAEDVAVYYCQQYYTTPYTFGQGTKLEIK
B4: Fab clone 163.17 (Fab, V domains shown)
VH: B3 VH with Q23R, D77E, A111G, V112P
VL: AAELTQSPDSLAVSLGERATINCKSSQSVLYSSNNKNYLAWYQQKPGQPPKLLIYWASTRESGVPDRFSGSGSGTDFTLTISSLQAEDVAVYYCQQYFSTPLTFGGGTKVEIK
notes: Human IgG1 kappa Fab (MCO1 vector, soluble from E. coli HB2151), myc tag on the C terminus of the heavy chain
B5: whole anti-p53 antibody from CHO clone C4B4 (antibody, V domains shown)
VH: B3 VH
VL: B3 VL
notes: also called C4B4G4
B6: Fab clone 163.24 (Fab, V domains shown)
VH: B3 VH with D28N, F45L, K63R, T69S, V79A, M81L, Y95F, A100S
VL: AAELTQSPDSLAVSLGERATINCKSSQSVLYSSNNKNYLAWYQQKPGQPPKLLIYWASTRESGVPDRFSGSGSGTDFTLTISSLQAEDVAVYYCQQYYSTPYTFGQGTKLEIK
notes: as for B4

What was measured:
bovine serum albumin [1] = target: T2, bovine serum albumin (bovine, UniProt P02769 25-607); assay: cross reactivity ELISA, Fab detected with 9E10 and AP goat anti-mouse
T2 construct: also called BSA

[2] = target: T3, recombinant p53 (wild type, whole protein) (UniProt P04637 1-393, limits assumed); assay: ELISA, soluble Fab, detected with 9E10 and AP goat anti-mouse
T3 construct: mature; Also tested unpurified in bacterial lysates; also called whole p53; full length p53

[3] = target: T4, p53 central domain (residues 95-298) (UniProt P04637 95-298); assay: as above
T4 construct: range 95-298; Carries the vector's tag (purified as whole p53 on Ni2+ resin); also called central domain of p53

[4] = target: T3, recombinant p53 (wild type, whole …); assay: SPR (BIAcore), p53 amine-coupled to a CM5 chip, Fab 10-200 nM injected, global fit, 1:1 model with drifting baseline
[5] = target: T5, p53 deletion construct 18 (residues 44-393) (human, UniProt P04637 44-393); assay: immunoblot of E. coli lysates, Fab detected with 9E10 and HRP goat anti-mouse
T5 construct: In E. coli lysate on an immunoblot; also called the 18 construct

bovine serum albumin [6] = target: T2, bovine serum albumin; assay: ELISA, crude Fab supernatant, detected with 9E10
CEA = target: T1, CEA; assay: ELISA, crude Fab supernatant, detected with 9E10
[7] = target: T6, ErbB2 extracellular domain (UniProt P04626 23-652, limits assumed); assay: ELISA, crude Fab supernatant, detected with 9E10
T6 construct: extracellular domain

[8] = target: T4, p53 central domain (residues 95-298); assay: immunoblot of purified central domain, Fab bacterial supernatant
[9] = target: T3, recombinant p53 (wild type, whole …)
hen egg white lysozyme = hen egg white lysozyme (hen, UniProt P00698 19-147); assay: cross reactivity ELISA, purified antibody, HRP goat anti-human
bovine serum albumin [10] = target: T2, bovine serum albumin; assay: as above
[11] = target: T7, p53 carboxy terminal domain (residues 283-393) (UniProt P04637 283-393); assay: ELISA, detected with HRP goat anti-human
T7 construct: Carries the vector's tag; also called C-terminal domain; carboxy terminal domain of the p53

[12] = target: T4, p53 central domain (residues 95-298); assay: ELISA, detected with HRP goat anti-human

T4 sequence (P04637 95-298 limits assumed): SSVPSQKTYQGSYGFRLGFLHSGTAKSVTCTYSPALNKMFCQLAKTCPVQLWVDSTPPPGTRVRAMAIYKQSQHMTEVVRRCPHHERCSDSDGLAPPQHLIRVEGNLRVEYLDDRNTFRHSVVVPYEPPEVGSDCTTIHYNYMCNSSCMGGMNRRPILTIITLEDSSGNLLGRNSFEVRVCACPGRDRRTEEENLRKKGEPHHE
T2 sequence (P02769 25-607 limits assumed): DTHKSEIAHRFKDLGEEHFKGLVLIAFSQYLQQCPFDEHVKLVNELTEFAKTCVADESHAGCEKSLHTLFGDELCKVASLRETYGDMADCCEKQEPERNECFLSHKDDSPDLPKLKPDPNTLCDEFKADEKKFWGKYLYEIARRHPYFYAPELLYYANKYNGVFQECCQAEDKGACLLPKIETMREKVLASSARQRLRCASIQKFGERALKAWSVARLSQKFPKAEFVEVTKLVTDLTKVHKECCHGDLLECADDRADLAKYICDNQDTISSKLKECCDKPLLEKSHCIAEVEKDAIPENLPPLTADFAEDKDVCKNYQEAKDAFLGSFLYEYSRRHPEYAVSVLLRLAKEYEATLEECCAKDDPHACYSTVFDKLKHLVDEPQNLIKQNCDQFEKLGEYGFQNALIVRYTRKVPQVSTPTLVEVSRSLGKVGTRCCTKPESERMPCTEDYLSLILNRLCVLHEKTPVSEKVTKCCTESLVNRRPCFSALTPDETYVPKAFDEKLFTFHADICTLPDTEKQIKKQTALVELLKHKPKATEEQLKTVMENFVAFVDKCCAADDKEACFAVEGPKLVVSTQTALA
T5 sequence (P04637 44-393 limits assumed, stated change not applied): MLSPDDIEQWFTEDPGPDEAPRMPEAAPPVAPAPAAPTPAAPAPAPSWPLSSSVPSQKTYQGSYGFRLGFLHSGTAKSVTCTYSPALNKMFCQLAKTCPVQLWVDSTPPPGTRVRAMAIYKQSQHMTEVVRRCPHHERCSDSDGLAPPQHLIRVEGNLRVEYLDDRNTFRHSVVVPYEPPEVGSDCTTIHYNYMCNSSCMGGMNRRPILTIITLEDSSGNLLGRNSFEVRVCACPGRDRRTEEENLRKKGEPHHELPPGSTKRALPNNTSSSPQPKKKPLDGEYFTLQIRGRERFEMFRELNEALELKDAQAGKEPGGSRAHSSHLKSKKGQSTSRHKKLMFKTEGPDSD
T3 sequence (P04637 whole entry): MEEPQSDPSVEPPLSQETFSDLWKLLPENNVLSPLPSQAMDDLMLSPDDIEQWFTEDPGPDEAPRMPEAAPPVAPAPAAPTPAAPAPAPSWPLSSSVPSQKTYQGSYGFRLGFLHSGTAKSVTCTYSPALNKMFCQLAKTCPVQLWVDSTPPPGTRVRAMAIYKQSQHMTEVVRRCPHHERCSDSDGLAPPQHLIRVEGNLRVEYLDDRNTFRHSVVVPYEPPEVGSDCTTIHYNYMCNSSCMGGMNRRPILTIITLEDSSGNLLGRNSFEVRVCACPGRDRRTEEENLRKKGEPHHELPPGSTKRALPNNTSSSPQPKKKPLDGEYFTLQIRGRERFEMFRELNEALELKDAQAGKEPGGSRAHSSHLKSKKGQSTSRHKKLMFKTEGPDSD
T7 sequence (P04637 283-393 limits assumed): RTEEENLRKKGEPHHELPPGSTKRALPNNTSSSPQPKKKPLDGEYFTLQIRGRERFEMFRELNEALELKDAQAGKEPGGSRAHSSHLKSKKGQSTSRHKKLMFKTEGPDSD
Chain of hen egg white lysozyme (P00698 19-147): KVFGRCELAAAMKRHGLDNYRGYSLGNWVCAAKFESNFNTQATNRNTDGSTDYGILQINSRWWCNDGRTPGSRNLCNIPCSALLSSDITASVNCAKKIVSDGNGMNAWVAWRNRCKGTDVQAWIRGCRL

Binder	Kd [4] [µM]	binding result [5]	binding result (bovine serum albumin [6])	binding result (CEA)	binding result [7]	other results
B1						binding result (bovine serum albumin [1]): no binding (tested: antigen coated at 1 µg/ml); binding result [2]: binds; binding result [3]: binds
B2	0.0119	no binding	no binding (tested: antigen coated at 1 µg/ml)	no binding (tested: antigen coated at 5 µg/ml)	no binding (tested: antigen coated at 5 µg/ml)	binding result [8]: no binding
B3		no binding	no binding (tested: antigen coated at 1 µg/ml)	no binding (tested: antigen coated at 5 µg/ml)	no binding (tested: antigen coated at 5 µg/ml)	Kd [9]: 0.015 µM
B4	0.0157	no binding	no binding (tested: antigen coated at 1 µg/ml)	no binding (tested: antigen coated at 5 µg/ml)	no binding (tested: antigen coated at 5 µg/ml)	
B5						binding result (hen egg white lysozyme): no binding (tested: antigen coated at 10 µg/ml); binding result (bovine serum albumin [10]): no binding (tested: antigen coated at 20 µg/ml); binding result [11]: no binding (tested: antigen coated at 2 µg/ml); binding result [12]: no binding (tested: antigen coated at 2 µg/ml)
B6	0.0138	no binding	no binding (tested: antigen coated at 1 µg/ml)	no binding (tested: antigen coated at 5 µg/ml)	no binding (tested: antigen coated at 5 µg/ml)	
